Reference: patent US20190106460A1 (published 2019)
Where two headings read alike, the source gives them in different places. Starred links: 1 amine or outer side, 2 acyl side, 3 side chain; linkers in the order of their positions; H or OH if unused. Non-standard residues stand in square brackets, D forms with d. *: point of attachment. 2,4,6‑trimethylbenzoyl = Cc1cc(C)c(C(=O)*)c(C)c1; 2Naphthylsulfonyl = O=S(=O)(c1ccc2ccccc2c1)*; 4‑(Br)‑2‑(Me)PhSO2 = Cc1cc(Br)ccc1S(=O)(=O)*; Benzoyl(4-tBu) = CC(C)(C)c1ccc(C(=O)*)cc1; Phe(3-F) = N[C@@H](Cc1cccc(F)c1)C(=O)O; 1Nal = N[C@@H](Cc1cccc2ccccc12)C(=O)O; Benzoyl(4-Br) = O=C(c1ccc(Br)cc1)*; 2Naphthoyl = O=C(c1ccc2ccccc2c1)*; Benzoyl(4-Me) = Cc1ccc(C(=O)*)cc1; Brosyl = O=S(=O)(c1ccc(Br)cc1)*; Suc = O=C(CCC(=O)[*:2])[*:1]; Tos = Cc1ccc(S(=O)(=O)*)cc1; Ethoxycarbonyl = CCOC(=O)*; Propionyl = CCC(=O)*; Bz = O=C(c1ccccc1)*; Ahx = NCCCCCC(=O)O; Moc = COC(=O)*

Experiments:
Skp2 = Skp2 (UniProt Q13309 1-424, limits assumed); assay: cell-based or functional assay
Fbw7 = Fbw7 (UniProt Q969H0 263-707, limits assumed); assay: cell-based or functional assay
[1] = molecular target: T1, βTrCP (tag cleaved and complexed with Skp1) (UniProt Q9Y297 175-605; P63208 1-163); assay: FP competition vs fluorescein-IκB peptide
T1 construct: Protein of the FP assay (0.035 µM); also called Beta Transducin repeat-containing protein; βTrCP/Skp1

[2] = molecular target: T1, βTrCP (tag cleaved and complexed with …); assay: FP competition vs fluorescein-IκB peptide; remark: listed apart in the source
[3] = molecular target: T2, HisβTrCP/Skp1 and HisβTrCP/GSTSkp1 (immobilised on NTA Biacore chip) (UniProt Q9Y297 175-605; P63208 1-163); assay: SPR, Biacore T200, βTrCP/Skp1 immobilised
T2 construct: SPR: KD values from both surfaces (with or without the GST moiety) were averaged to give the apparent KD; also called βTrCP surfaces
From the text: As βTrCP was His tagged, an NTA sensor chip was used. This sensor chip has a dextran surface matrix with immobilized nitrilotriacetic acid (NTA) which provides a means of capturing polyHis-tagged proteins through Nickel chelation. It was hoped that addition of Ni⁺ would orient the protein in a specific (and hopefully active) manner as it is covalently immobilised via amine coupling. Addition of EDC:NHS (N-ethyl-N′-(3-[…])-carbodiimide:N-hydroxysuccinimide) converts carboxyl groups on the dextran sensor chip surface to succinamide esters which readily form covalent bonds with primary amines. Each chip contains four flow cells (each a separate surface) which means that compounds/peptides can be passed over different forms of βTrCP and a reference surface simultaneously. If binding to βTrCP is occurring, responses should be the same (accounting for differences in density of surface etc) on each surface.
Small molecule/peptide samples to be assayed for binding to βTrCP surfaces, were provided as 10 mM stocks in 100% DMSO. All samples were tested in running buffer composed of 10 mM HEPES pH 7.4, 150 mM NaCl, 50 μM EDTA, 0.005% p20, and 1% DMSO. Serial dilutions were made using running buffer. Samples were tested over varying concentrations up to a maximum of 100 μM. Two methods of measuring the SPR response were employed: single cycle kinetics which measures the response across different concentrations of sample within a single cycle (no regeneration of surface) and a method that measures the response at a given concentration in each cycle and includes a regeneration wash after each sample injection. The regeneration solution used was the same as running buffer, but included 500 mM NaCl. Data was fitted using Biacore T200 evaluation software. KD values calculated from binding curves from both surfaces (with or without the GST moiety) were averaged to produce apparent KD's for each sample tested.

[4] = molecular target: T3, βTrCP (tag cleaved and complexed with Skp1) (UniProt Q9Y297 175-605; P63208 1-163); assay: fluorescence polarisation assay; the column head does not say whether IC50 or Ki
T3 construct: Protein of the fluorescence polarisation assay, 0.035 µM; also called Beta Transducin repeat-containing protein; βTrCP/Skp1
Description: Assay components (without compound) were premixed in a microcentrifuge tube and incubated for 1 hour to ensure equilibrium was achieved. Each compound was then added to one tube, mixed by vortexing, and then dispensed into 3 wells of a black 384-well plate and incubated for 30 minutes. Fluorescence polarization was then read (excitation 485 nm, emission 530 nm) using an Analyst-AD from Molecular Devices.
Binding of the compounds to βTrCP was assessed using a fluorescence polarisation (FP) binding assay. The FP assay is an in vitro binding assay using a fluorescein-tagged IkB peptide at 10 nM to mimic substrate binding to βTrCP, and was performed as described above.

Chain of Fbw7 (Q969H0 263-707 limits assumed): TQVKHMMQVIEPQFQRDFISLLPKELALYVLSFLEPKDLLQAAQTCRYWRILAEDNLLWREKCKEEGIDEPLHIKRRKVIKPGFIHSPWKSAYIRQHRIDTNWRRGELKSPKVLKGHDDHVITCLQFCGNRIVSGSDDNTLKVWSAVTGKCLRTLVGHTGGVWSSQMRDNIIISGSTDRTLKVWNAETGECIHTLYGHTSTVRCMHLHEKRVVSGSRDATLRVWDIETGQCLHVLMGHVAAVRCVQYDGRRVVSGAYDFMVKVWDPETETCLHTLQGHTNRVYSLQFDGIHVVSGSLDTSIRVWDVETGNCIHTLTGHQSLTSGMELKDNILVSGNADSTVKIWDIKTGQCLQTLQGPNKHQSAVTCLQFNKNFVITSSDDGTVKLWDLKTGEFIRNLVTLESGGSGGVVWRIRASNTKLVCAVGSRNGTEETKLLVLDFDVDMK
Chain of Skp2 (Q13309 whole entry): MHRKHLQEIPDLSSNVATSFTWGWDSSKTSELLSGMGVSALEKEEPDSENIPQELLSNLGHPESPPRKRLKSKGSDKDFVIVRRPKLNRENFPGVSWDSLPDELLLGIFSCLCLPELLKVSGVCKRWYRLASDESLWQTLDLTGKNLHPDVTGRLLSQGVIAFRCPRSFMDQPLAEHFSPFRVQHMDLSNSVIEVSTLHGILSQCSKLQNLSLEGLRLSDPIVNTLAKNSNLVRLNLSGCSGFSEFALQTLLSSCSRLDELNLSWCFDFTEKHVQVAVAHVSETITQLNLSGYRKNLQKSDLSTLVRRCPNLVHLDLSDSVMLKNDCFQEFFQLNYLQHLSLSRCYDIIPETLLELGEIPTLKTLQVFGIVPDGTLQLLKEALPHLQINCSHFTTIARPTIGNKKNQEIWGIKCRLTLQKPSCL
T2 sequence (Q9Y297 175-605, chain 1 of 2): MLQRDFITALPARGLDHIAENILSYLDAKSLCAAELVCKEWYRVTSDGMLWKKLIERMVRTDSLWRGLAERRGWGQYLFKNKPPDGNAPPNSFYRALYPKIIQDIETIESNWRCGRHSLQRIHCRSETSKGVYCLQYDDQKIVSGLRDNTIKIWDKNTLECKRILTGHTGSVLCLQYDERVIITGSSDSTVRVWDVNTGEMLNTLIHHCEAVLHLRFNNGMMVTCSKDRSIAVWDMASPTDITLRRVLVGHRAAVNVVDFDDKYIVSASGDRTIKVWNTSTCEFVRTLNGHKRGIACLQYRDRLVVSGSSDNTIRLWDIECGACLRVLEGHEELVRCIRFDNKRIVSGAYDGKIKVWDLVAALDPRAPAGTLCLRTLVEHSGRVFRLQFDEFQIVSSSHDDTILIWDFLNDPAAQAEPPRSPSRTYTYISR
T2 sequence (P63208 whole entry, chain 2 of 2): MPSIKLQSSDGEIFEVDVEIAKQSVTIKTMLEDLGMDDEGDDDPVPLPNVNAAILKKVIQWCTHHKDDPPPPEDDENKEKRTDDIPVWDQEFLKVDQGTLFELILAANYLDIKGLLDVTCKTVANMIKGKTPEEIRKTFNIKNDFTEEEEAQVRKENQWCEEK

Binder | % Inhibition Skp2 @ 10 µM (Skp2) [%] | % Inhibition Skp2 @ (100 µM) (Skp2) [%] | % Inhibition Fbw7 @ 10 µM (Fbw7) [%] | % Inhibition Fbw7 @ (100 µM) (Fbw7) [%] | IC50 [1] [nM] | IC50 [2] [nM] | Kd [3] [nM] | FP Assay / [4] [nM]
Ac-[dD]EG[Phe(3-F)][1Nal]E-NH2 (SMILES CC(=O)N[C@H](CC(=O)O)C(=O)N[C@@H](CCC(=O)O)C(=O)NCC(=O)N[C@@H](Cc1cccc(F)c1)C(=O)N[C@@H](Cc1cccc2ccccc12)C(=O)N[C@@H](CCC(=O)O)C(N)=O, also called UBP016) [Ac-dEGF(3F)1NalE-NH2] | 0 | 7 | 3 | 8 | 112 | 112 | 590 | 
Ac-[dD]EG[Phe(3-F)]WE-NH2 (also called UBP017) [Ac-dEGF(3F)WE-NH2] | 10 | 27 | 3 | 0 | 102 | 102 | 250 | 
Bz-[dD]EG[Phe(3-F)]WE-NH2 (also called UBP018) [Bz-dEGF(3F)WE-NH2] | 0 | 0 | 0 | 5 | 173 | 173 | 424 | 
Propionyl-[dD]EG[Phe(3-F)]WE-NH2 (also called UBP019) [Et(CO)-dEGF(3F)WE-NH2] | 1 | 10 | 0 | 10 | 145 | 145 | 150 | 
Moc-[dD]EG[Phe(3-F)]WE-NH2 (SMILES COC(=O)N[C@H](CC(=O)O)C(=O)N[C@@H](CCC(=O)O)C(=O)NCC(=O)N[C@@H](Cc1cccc(F)c1)C(=O)N[C@@H](Cc1c[nH]c2ccccc12)C(=O)N[C@@H](CCC(=O)O)C(N)=O, also called UBP020) [MeO(CO)-dEGF(3F)WE-NH2] | 0 | 16 | 6 | 8 | 76 | 76 | 53 | 
Tos-[dD]EG[Phe(3-F)]WE-NH2 (SMILES Cc1ccc(S(=O)(=O)N[C@H](CC(=O)O)C(=O)N[C@@H](CCC(=O)O)C(=O)NCC(=O)N[C@@H](Cc2cccc(F)c2)C(=O)N[C@@H](Cc2c[nH]c3ccccc23)C(=O)N[C@@H](CCC(=O)O)C(N)=O)cc1, also called UBP021) [Ts-dEGF(3F)WE-NH2] | 19 | 25 | 9 | 0 | 29 | 29 | 190 | 
Ethoxycarbonyl-[dD]EG[Phe(3-F)]WE-NH2 (SMILES CCOC(=O)N[C@H](CC(=O)O)C(=O)N[C@@H](CCC(=O)O)C(=O)NCC(=O)N[C@@H](Cc1cccc(F)c1)C(=O)N[C@@H](Cc1c[nH]c2ccccc12)C(=O)N[C@@H](CCC(=O)O)C(N)=O, also called UBP023) [EtO(CO)-dEGF(3F)WE-NH2] | 4 | 4 | 0 | 12 | 45 | 45 | 34 | 
2Naphthylsulfonyl-[dD]EG[Phe(3-F)]WE-NH2 (SMILES NC(=O)[C@H](CCC(=O)O)NC(=O)[C@H](Cc1c[nH]c2ccccc12)NC(=O)[C@H](Cc1cccc(F)c1)NC(=O)CNC(=O)[C@H](CCC(=O)O)NC(=O)[C@@H](CC(=O)O)NS(=O)(=O)c1ccc2ccccc2c1, also called UBP031) [2-NaphthylSO2-dEGF(3F)WE-NH2] | 0 | 17 | 10 | 11 | 44 | 44 | 262 | 
Tos-[dD]DG[Phe(3-F)]WD-NH2 (SMILES Cc1ccc(S(=O)(=O)N[C@H](CC(=O)O)C(=O)N[C@@H](CC(=O)O)C(=O)NCC(=O)N[C@@H](Cc2cccc(F)c2)C(=O)N[C@@H](Cc2c[nH]c3ccccc23)C(=O)N[C@@H](CC(=O)O)C(N)=O)cc1, also called UBP028) [Ts-dDGF(3F)WD-NH2] | 0 | 14 | 4 | 10 | 81 | 81 | 637 | 
Tos-[dD]DG[Phe(3-F)]WE-NH2 (SMILES Cc1ccc(S(=O)(=O)N[C@H](CC(=O)O)C(=O)N[C@@H](CC(=O)O)C(=O)NCC(=O)N[C@@H](Cc2cccc(F)c2)C(=O)N[C@@H](Cc2c[nH]c3ccccc23)C(=O)N[C@@H](CCC(=O)O)C(N)=O)cc1, also called UBP025) [Ts-dDGF(3F)WE-NH2] | 0 | 22 | 1 | 8 | 25 | 25 | 292 | 
Tos-[dD]EG[Phe(3-F)]WD-NH2 (SMILES Cc1ccc(S(=O)(=O)N[C@H](CC(=O)O)C(=O)N[C@@H](CCC(=O)O)C(=O)NCC(=O)N[C@@H](Cc2cccc(F)c2)C(=O)N[C@@H](Cc2c[nH]c3ccccc23)C(=O)N[C@@H](CC(=O)O)C(N)=O)cc1, also called UBP027) [Ts-dEGF(3F)WD-NH2] | 4 | 6 | 3 | 8 | 34 | 34 | 680 | 
Suc-EGFFE-NH2 (SMILES NC(=O)[C@H](CCC(=O)O)NC(=O)[C@H](Cc1ccccc1)NC(=O)[C@H](Cc1ccccc1)NC(=O)CNC(=O)[C@H](CCC(=O)O)NC(=O)CCC(=O)O, also called UBP002) [Suc-EGFFE-NH2] | 14 | 0 | 0 | 0 |  | 3180 | 29500 | 
Brosyl-[dD]EG[Phe(3-F)]WE[Ahx]K(Benzoyl(4-Br))-NH2 (Round II CPP; also called UBP093) [4-(Br)PhSO2-dEGF(3F)WE-Ahx-K(CO((4-Br)Ph))-NH2] |  |  |  |  |  |  |  | 106
{4‑(Br)‑2‑(Me)PhSO2}-[dD]EG[Phe(3-F)]WE[Ahx]K(Benzoyl(4-tBu))-NH2 (Round II CPP; also called UBP094) [4-(Br)-2-(Me)PhSO2-dEGF(3F)WE-Ahx-K(CO((4-tBu)Ph))-NH2] |  |  |  |  |  |  |  | 142
{4‑(Br)‑2‑(Me)PhSO2}-[dD]EG[Phe(3-F)]WE[Ahx]K(2Naphthoyl)-NH2 (Round II CPP; also called UBP095) [4-(Br)-2-(Me)PhSO2-dEGF(3F)WE-Ahx-K(CO(2-Naphth))-NH2] |  |  |  |  |  |  |  | 86.7
{4‑(Br)‑2‑(Me)PhSO2}-[dD]EG[Phe(3-F)]WE[Ahx]K(2,4,6‑trimethylbenzoyl)-NH2 (Round II CPP; also called UBP096) [4-(Br)-2-(Me)PhSO2-dEGF(3F)WE-Ahx-K(CO((2,4,6-Me3)Ph))-NH2] |  |  |  |  |  |  |  | 114
{4‑(Br)‑2‑(Me)PhSO2}-[dD]EG[Phe(3-F)]WE[Ahx]K(Benzoyl(4-Me))-NH2 (Round II CPP; also called UBP097) [4-(Br)-2-(Me)PhSO2-dEGF(3F)WE-Ahx-K(CO((4-Me)Ph))-NH2] |  |  |  |  |  |  |  | 114
{4‑(Br)‑2‑(Me)PhSO2}-[dD]EG[Phe(3-F)]WE[Ahx]K(Benzoyl(4-Br))-NH2 (Round II CPP; also called UBP098) [4-(Br)-2-(Me)PhSO2-dEGF(3F)WE-Ahx-K(CO((4-Br)Ph))-NH2] |  |  |  |  |  |  |  | 92.4
{4‑(PhO)PhSO2}-[dD]EG[Phe(3-F)]WE-NH2 [4-(PhO)PhSO2-dEG-F(3F)-WE-NH2] |  |  |  |  | 63 |  |  | 
